According to PMC3039135:
Values belong to the molecule of their own block, whether it stands above or below them.

How the values were obtained:
Assay in all cases: SPR
[1] = molecular target: WO2_VH/gWO2_VL rFab (mouse | human)
[2] = molecular target: 20.1_VH/WO2_VL rFab (mouse | human)
[3] = molecular target: gWO2 rFab (mouse | human)
[4] = molecular target: gWO2_VH/WO2_VL rFab (mouse | human)
[5] = molecular target: WO2_VH/20.1_VL rFab (mouse | human)
[6] = molecular target: WO2 (Y58>A) mutant rFab (mouse | human)
[7] = molecular target: biotinylated Aβ1–16 peptide (human)
[8] = molecular target: biotinylated Aβ1–42 high molecular weight (HMW) soluble oligomers (human)

Kd [1]: 349 nM
koff [1]: 0.145 s⁻¹
kon [1]: 390000 M⁻¹ s⁻¹
Kd [2]: 2.8 nM
koff [2]: 0.0015 s⁻¹
kon [2]: 540000 M⁻¹ s⁻¹
Kd [3]: 21300 nM
Kd [4]: 79 nM
koff [4]: 0.026 s⁻¹
kon [4]: 330000 M⁻¹ s⁻¹
Kd [5]: 41 nM
koff [5]: 0.0614 s⁻¹
kon [5]: 1.5e+06 M⁻¹ s⁻¹
Kd [6]: 4900 nM
Molecule: Aβ1–16-Im7 fusion protein (domain or fragment)

Kd [7]: 154 nM
koff [7]: 0.00974 s⁻¹
Kd [8]: 89.2 nM
koff [8]: 0.00546 s⁻¹
B1: WO2/10D5_HCDR3 rFab (Fab, V domains shown)
VH: VTLKESGPGLLKPSQTLSLTCSFSGFSIRTSKVGVSWIRQPSGKGLEWLAHIYWDDDKRYNPSLESRLTISKDTSRDMVFMKITSVDTADTATYYCVRRPITPVLVDAMDYWGQGTTLTVSS
VL: DVLMTQTPLSLPVNLGEQASISCRSSQSIVHSNGHTYLEWYLQRPGQSPKLLIYQVSTRFSGVPDRFSGSGSGTDFTLRISRVEAEDLGVYYCFQASLVPLTFGAGTKLELK

Kd [7]: 262 nM
koff [7]: 0.0449 s⁻¹
kon [7]: 171000 M⁻¹ s⁻¹
Kd [8]: 135 nM
koff [8]: 0.0261 s⁻¹
kon [8]: 133000 M⁻¹ s⁻¹
B2: WO2/12A11_HCDR3 rFab (Fab, V domains shown)
VH: VTLKESGPGLLKPSQTLSLTCSFSGFSIRTSKVGVSWIRQPSGKGLEWLAHIYWDDDKRYNPSLESRLTISKDTSRDMVFMKITSVDTADTATYYCARRTTTADYFAYWGQGTTLTVSS
VL: B1 VL
